Patent US10196445 (Bristol-Myers Squibb, dated 2019)
Each block holds one binder with its values, some of them ahead of it.

Target: CTLA4 CD3 zeta on the 58 α-β-CTLA4 CD3 zeta expressing cell line (human)
Assay: cell-based or functional assay

CTLA4 CD3 zeta on the 58 α-β-CTLA4 CD3 zeta expressing cell line (human), sequence (P16410 36-161): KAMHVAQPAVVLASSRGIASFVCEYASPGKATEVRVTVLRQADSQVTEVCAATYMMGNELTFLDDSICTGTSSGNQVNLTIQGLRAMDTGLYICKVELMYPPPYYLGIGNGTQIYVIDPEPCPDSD

EC50 of NK92 cell-mediated specific lysis (calcein release) of 58 α-β-CTLA4 CD3 zeta cells: 0.13 ng/mL
B1: ipilimumab (antibody, human IgG1, kappa, V domains shown)
VH: QVQLVESGGGVVQPGRSLRLSCAASGFTFSSYTMHWVRQAPGKGLEWVTFISYDGNNKYYADSVKGRFTISRDNSKNTLYLQMNSLRAEDTAIYYCARTGWLGPFDYWGQGTLVTVSS
VL: not shown

EC50 of NK92 cell-mediated specific lysis (calcein release) of 58 α-β-CTLA4 CD3 zeta cells: 0.0056 ng/mL
B2: non-fucosylated ipilimumab (antibody, human IgG1, kappa, V domains shown)
VH: B1 VH
VL: not shown
modifications: non-fucosylated (no fucose on the Asn297-linked oligosaccharide)
